Measured values: the supplement of paper PMC10567573
± gives the standard deviation.

Test: protein stability index of a GFP-peptide fusion (GPS, HEK-293T) (PSI 1-6); higher = more stable
Conditions: c terminus: a fixed tail appended
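Also: 24-mer peptide tiles fused after GFP, lentivirally expressed, FACS-sorted into six equal bins by GFP/DsRed ratio, decoded by Illumina sequencing, PSI is the read-weighted mean bin number.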

Sequence	protein stability index (treatment: DMSO)	protein stability index (treatment: MLN4924 1 uM, 8 h)
LPTVGGQLGTAGQGFSYSKSNGRG [MYOZ1]	4.3 ± 0.21	4.4 ± 0.35
LPYTDGLSWELLDSHLGGNARGMG [CTBP1-DT]	2.98 ± 0.28	3.29 ± 0.14
LQGAASHVPEGFDPTGPAGLGRPT [EHMT1]	4.54 ± 0.2	4.58 ± 0.14
LQGVPERLLGTAGTEEKKKLIRDF [VTI1B]	4.25 ± 0.44	4.63 ± 0.2
LQLLLGCKARMERDGYGMTPLLAA [FEM1A]	2.38 ± 0.5	2.24 ± 0.29
LQNKVPLLGSSTACIVVLDRTSHR [PPTC7]	2.14 ± 0.16	2.32 ± 0.33
LQRDFLKQRPTKLKSLIRLVKHWY [OAS1]	3.3 ± 0.41	3.15 ± 0.23
LRDRAERIASRAIDNAADLLIFGK [SNX8]	3.28 ± 0.17	3.6 ± 0.31
LRFTSGLVVALDVDATLEHVQDPQ [INTS4]	2.09 ± 0.25	2.43 ± 0.22
LRGQVGGEINVEMDAAPGVDLSRI [KRT17]	3.97 ± 0.15	3.92 ± 0.16
LRLHDNPALKECIQGADTIRCVYI [CRY1]	2.6 ± 0.38	2.41 ± 0.3
LRRPRPVQRTQSVPVRRPARRRQS [RASAL3]	4.99 ± 0.29	5.19 ± 0.35
LRSFCAWQRGLNTPEDSDPDHFDT [ADAMTS4]	4.12 ± 0.27	4.24 ± 0.2
LSALDSKANNLSSLSKKYRQDAKY [SEC22B]	3.87 ± 0.19	3.98 ± 0.3
LSETADPFFVLNSDVICDFPFQAM [GMPPB]	2.44 ± 0.26	2.6 ± 0.35
LSLFIPESPRWLYSQGRLSEAEEA [SLC22A15]	3.19 ± 0.35	3.44 ± 0.35
LSLYQLSLERGTALFAQVQRGALP [RSAD1]	2.23 ± 0.36	2.32 ± 0.44
LSSVEAYNIRTDSWTTVTSMTTPR [KLHL12]	2.79 ± 0.31	3.23 ± 0.37
LTAFICFLVFILNAGLVWFFPWRE [MFSD9]	2.23 ± 0.42	2.11 ± 0.51
LTERLKVLEAKMTMLTVIEQPVPP [EMID1]	3.09 ± 0.46	3.32 ± 0.16
LTLQVYREQADSCREQLDIMNDLS [TRIM14]	2.99 ± 0.24	2.95 ± 0.1
LTVVSFYQVAALQGDLASLRAELQ [TNFSF13B]	2.77 ± 0.7	2.63 ± 0.68
LVLAIPLLLILVSYVHILSAILQF [OR10K2]	3.37 ± 0.14	3.17 ± 0.28

Sequence	protein stability index (treatment: DMSO)	protein stability index (treatment: MLN4924 1 uM, 8 h)
LVQVTLLDTVELATYCVRTFALYK [PTPRD]	3.1 ± 0.49	2.97 ± 0.81
LWEKVMPSRYAAIYNGGVEAVSTL [SLC19A2]	2.19 ± 0.22	2.07 ± 0.29
LWFYNTSLKFFLNKPMLADVVFEI [RHOBTB3]	2.82 ± 0.32	3.04 ± 1.1
LYELASLKRAFEAANLPALVLKIM [NEK8]	2.33 ± 0.36	2.12 ± 0.34
LYLVGFLDLFGVSMVVPLLSLHVK [MFSD9]	3.61 ± 0.17	3.19 ± 0.33
LYRQHQAQIDQYVGLVTNQLSHIK [RTN2]	2.08 ± 0.34	2.05 ± 0.4
LYTPSNEHFGIVPLEAMYMQCPVI [ALG2]	2.28 ± 0.098	2.39 ± 0.35
MAAMFNGNYMEAKSVLIPVYGVSK [RHOBTB3]	2.27 ± 0.35	2.12 ± 0.33
MADQDPAGISPLQQMVASGTGAVV [SLC25A39]	4.52 ± 0.22	4.42 ± 0.13
MAEAEGVPTTPGPASGSTFRGRRD [RETREG3]	5.12 ± 0.39	5.22 ± 0.14
MAGGKAGKDSGKAKAKAVSRSQRA [H2AZ2]	4.73 ± 0.24	5.03 ± 0.25
MAGTNALLMLENFIDGKFLPCSSY [ALDH8A1]	2.19 ± 0.35	2.12 ± 0.26
MAHSKTRTNDGKITYPPGVKEISD [PDS5B]	4.59 ± 0.17	4.61 ± 0.21
MALQLGRLSSGPCWLVARGGCGGP [CPOX]	2.36 ± 0.38	2.44 ± 0.38
MDGSGEQPRGGVSSRIEQGEWGGR	4.58 ± 0.43	4.58 ± 0.17
MDRKTRFIIHGFIDKGDESWVTDM [PNLIPRP1]	2.48 ± 0.66	2.51 ± 0.19
MDTQFTIRARELQNIYKCIMLKNI [IQUB]	2.27 ± 0.24	2.37 ± 0.3
MEEVCGGEKPYLSPDILEEKHCEF [ATL3]	5.15 ± 0.29	5.01 ± 0.14
MEEVISPRQVSYTPQHHEKQYAMQ [IQUB]	4.38 ± 0.15	4.31 ± 0.29
MENNHTVAITILQDDHDHKVQELM [MTUS2]	4.42 ± 0.26	4.34 ± 0.098
MEPATAPRPDMAPELTPEEEQATK [PTPN9]	5.71 ± 0.097	5.08 ± 0.48
MFSVLSYGRLVARAVLGGLSQTDP [PPTC7]	2.01 ± 0.74	2.85 ± 1.3
